Source: PMC6517596

Biological target: KLF4 (Homo sapiens) (UniProt O43474)
Test: DPI-ELISA competition
Settings: KLF4 0-150 ng against 80 ng Sp1; 2 pmol DNA; EMSA: 2 ug nuclear extract or 50 ng KLF4, 30 min on ice, 6% native PAGE; DPI-ELISA: 2 pmol biotin-DNA, 2 h; buffer, salt and pH not stated

Sequence of UniProt O43474 (O43474 whole entry): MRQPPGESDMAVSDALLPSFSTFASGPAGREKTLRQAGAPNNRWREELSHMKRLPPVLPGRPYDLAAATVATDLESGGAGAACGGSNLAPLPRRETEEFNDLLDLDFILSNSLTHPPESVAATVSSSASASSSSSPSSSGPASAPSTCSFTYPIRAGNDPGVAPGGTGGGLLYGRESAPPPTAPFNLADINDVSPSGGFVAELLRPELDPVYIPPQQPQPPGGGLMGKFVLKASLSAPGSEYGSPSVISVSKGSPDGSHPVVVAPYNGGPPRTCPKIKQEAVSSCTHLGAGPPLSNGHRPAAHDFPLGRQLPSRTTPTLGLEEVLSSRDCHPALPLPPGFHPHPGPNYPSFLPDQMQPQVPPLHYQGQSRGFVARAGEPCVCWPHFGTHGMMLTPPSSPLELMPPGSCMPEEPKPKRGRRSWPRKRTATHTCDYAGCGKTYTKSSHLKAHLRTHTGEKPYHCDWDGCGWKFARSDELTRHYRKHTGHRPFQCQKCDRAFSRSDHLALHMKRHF

## GGTCCCAGAGCACGAGCCCCCGCCCCCGGTGGCCCC (double strand) [CPI-17 GC box 2 biotinylated]
  IC50: 29 ng
